One data set deals with C=C(OP(=O)(O)O)C(=O)O. The experiment in a line: purified protein, by the assay type. The conditions noted are these: other: substrate saturation; Bacterial EPSPS / CP4.
Substrate in data set [1]: C=C(OP(=O)(O)O)C(=O)O
Put plainly: Substrate saturation analysis with glyphosate (Example 8), Zm-H6. The data set is classed as biochemical, Zea mays. As to conditions: other: substrate saturation, pH 7.0. The text has this: Generally, (kcat/KM)*KI is obtained by performing substrate saturation analysis in the absence and presence of inhibitor. However, that analysis takes longer. […] To validate the method, (kcat/KM)*KI was quantified using both methods—traditional (saturation) and the instant method (rapid), for variants of maize 5-enolpyruvylshikimate-3-phosphate synthase (EPSPS) and its competitive inhibitor, glyphosate.
The amino acid sequence of mature Zea mays EPSPS was obtained from GenBank entry CAA44974.1 (SEQ ID NO:2). A nucleotide sequence was created to add an N-terminal methionine and to optimize codon usage for expression in E. coli. The synthesized gene was cloned into an expression vector that provides a T7 promoter driving expression of the protein and a 10× N-terminal histidine tag. Variants selected for this study include native maize EPSPS and variants generated by a gene shuffling cascade described herein. […] Protein concentration was determined by absorbance at 280 nm using an extinction coefficient of 0.676 OD/mg/m L. The proteins were normalized to 0.5 mg/mL for assay.
EPSPS activity was determined by quantifying the phosphate generated by the reaction. […] The absorbance change that occurs was monitored continuously at 360 nm, where the extinction is 11,200 M-1 cm-1, with a Spectramax plate reader (Molecular Devices). […]

Substrate in data set [2]: C=C(OP(=O)(O)O)C(=O)O
Put plainly: Substrate saturation kinetic analysis with glyphosate, H6-A36G. The data set is classed as biochemical, Zea mays. The conditions noted are these: other: substrate saturation.

Substrate in data set [3]: C=C(OP(=O)(O)O)C(=O)O
The experiment in a line: Substrate saturation kinetic analysis with glyphosate, H6-A76V. The data set is classed as biochemical, Zea mays. As to conditions: other: substrate saturation.

Substrate in data set [4]: C=C(OP(=O)(O)O)C(=O)O
Put plainly: Substrate saturation kinetic analysis with glyphosate, H6-A69V. The data set is classed as biochemical, Zea mays. The conditions noted are these: other: substrate saturation.

Substrate in data set [5]: C=C(OP(=O)(O)O)C(=O)O
Put plainly: Substrate saturation kinetic analysis with glyphosate, H6-D196V. The data set is classed as biochemical, Zea mays. As to conditions: other: substrate saturation.

Substrate in data set [6]: C=C(OP(=O)(O)O)C(=O)O
The experiment in a line: Substrate saturation kinetic analysis with glyphosate, H6-H54E. The data set is classed as biochemical, Zea mays. The conditions noted are these: other: substrate saturation.

Substrate in data set [7]: C=C(OP(=O)(O)O)C(=O)O
Put plainly: Substrate saturation kinetic analysis with glyphosate, H6-K246G. The conditions noted are these: other: substrate saturation. The data set is classed as biochemical, Zea mays.

Substrate in data set [8]: C=C(OP(=O)(O)O)C(=O)O
Put plainly: Substrate saturation kinetic analysis with glyphosate, H6-R61Y. The data set is classed as biochemical, Zea mays. As to conditions: other: substrate saturation.

Substrate in data set [9]: C=C(OP(=O)(O)O)C(=O)O
The experiment in a line: Substrate saturation kinetic analysis with glyphosate, H6-V87T. The data set is classed as biochemical, Zea mays. The conditions noted are these: other: substrate saturation.

Substrate in data set [10]: C=C(OP(=O)(O)O)C(=O)O
The experiment in a line: Substrate saturation kinetic analysis with glyphosate, Zm-A189T. The data set is classed as biochemical, Zea mays. The conditions noted are these: other: substrate saturation.

Another data set relates to maize EPSPS. Put plainly: EPSPS reaction rates at 200 uM PEP and S3P, and at 30 uM substrates with 1 mM glyphosate. The data set is classed as biochemical, Zea mays. The conditions noted are these: Zea ma. The procedure: EPSPS activity was determined by quantifying the phosphate generated from the EPSPS reaction. Release of inorganic phosphate was coupled to reaction with 2-amino-6-mercapto-7-methylpurine ribonucleoside, catalyzed by purine-nucleoside phosphorylase (M R Webb, Proc. Natl. Acad. Sci. 89:4884-4887, 1992). The absorbance change that occurs was monitored at 360 nm, where the extinction is 11,200 M^−1 cm^−1, with a Spectramax plate reader (Molecular Devices). To determine kinetic parameters, the varied substrate was present at seven concentrations (the eighth being the blank, containing no substrate) ranging from 4 to 400 uM and the unvaried substrate present at saturation. […] Reactions were monitored with a Spectramax plate reader. […] KI was then calculated from the following form of the Michaelis-Menten equation for competitive inhibition: KI=KM[I]/(KM app−KM) KM approximates the dissociation constant of the enzyme-substrate complex while kcat is the rate of conversion of substrate to product when the substrate concentration is saturating. kcat/KM is a widely accepted parameter for catalytic efficiency when substrate concentration is low (˜KM). […] The parameter kcat/KM×KI is used to quantify both catalytic efficiency and insensitivity and thus the overall fitness of the enzyme. […]

Data set [11] deals with Glycine max (93Y21) hairy root. Put plainly: Hairy root growth from transformed soybean cotyledons with or without 25 uM glyphosate. The data set is classed as cell-based. The conditions noted are these: constructs containing the UBQ10 promoter.
Substrate in data set [12]: C=C(OP(=O)(O)O)C(=O)O
Put plainly: Substrate saturation kinetic analysis with glyphosate, Zm-T103I. The data set is classed as biochemical, Zea mays. The conditions noted are these: other: substrate saturation.

Substrate in data set [13]: C=C(OP(=O)(O)O)C(=O)O
The experiment in a line: Substrate saturation kinetic analysis with glyphosate, Zm-P107S. The data set is classed as biochemical, Zea mays. The conditions noted are these: other: substrate saturation.

The Km is the substrate concentration at which the rate is half of its maximum. In general, kcat refers to the maximal rate divided by the concentration of active sites.

Where a chain is given by its changes, count along the chain named. Names may count otherwise.

On to “Bacterial EPSPS (CP4) (Agrobacterium sp. CP4)”, for which, in the data set on C=C(OP(=O)(O)O)C(=O)O, the Km turned out to be 15.8 µM and the kcat was found to be 20.32 s⁻¹.

B1: Zea mays EPSPS variant Zm-H6 (868-H6) (Zea mays; A1R/A3W/A415G/A71Q/D401G/E301S/E390G/G101A/I207L/K83R/L97C/T278A/T360S/T440Q/V437R) (protein)
chain: MRGWEEIVLQPIKEISGTVKLPGSKSLSNRILLLAALSEGTTVVDNLLNSEDVHYMLGALRTLGLSVEADKQAKRAVVVGCGGRFPVEDAKEEVQLFCGNAATAMRPLTAAVTAAGGNATYVLDGVPRMRERPIGDLVVGLKQLGADVDCFLGTDCPPVRVNGIGGLPGGKVKLSGSISSQYLSALLMAAPLALGDVEIEIIDKLISLPYVEMTLRLMERFGVKAEHSDSWDRFYIKGGQKYKSPKNAYVEGDASSASYFLAGAAITGGTVTVEGCGTASLQGDVKFAEVLEMMGAKVTWTSTSVTVTGPPREPFGRKHLKAIDVNMNKMPDVAMTLAVVALFADGPTAIRDVASWRVKESERMVAIRTELTKLGASVEEGPDYCIITPPGKLNVTAIDTYGDHRMAMAFSLAACGEVPVTIRDPGCTRKTFPDYFDRLSQFVKN
Take B1: in [1], the Michaelis constant (Km) was found to be 20.6 µM and the turnover number (kcat) was 3.3 s⁻¹.

B2: Zea mays EPSPS variant Zm-H6 (868-H6) with A36G (H6-A36G) (Zea mays; A1R/A35G/A3W/A415G/A71Q/D401G/E301S/E390G/G101A/I207L/K83R/L97C/T278A/T360S/T440Q/V437R) (protein)
chain: B1 chain with A36G
For B2, in data set [2], the Km worked out at 30.8 µM and the kcat was determined as 4.1 s⁻¹.

B3: Zea mays EPSPS variant Zm-H6 (868-H6) with A76V (H6-A76V) (Zea mays; A1R/A3W/A415G/A71Q/A75V/D401G/E301S/E390G/G101A/I207L/K83R/L97C/T278A/T360S/T440Q/V437R) (protein)
chain: B1 chain with A76V
As for B3, in [3], the Km came out at 45.2 µM and the kcat amounted to 3.48 s⁻¹.

B4: Zea mays EPSPS variant Zm-H6 (868-H6) with A69V (H6-A69V) (Zea mays; A1R/A3W/A415G/A68V/A71Q/D401G/E301S/E390G/G101A/I207L/K83R/L97C/T278A/T360S/T440Q/V437R) (protein)
chain: B1 chain with A69V
For B4, in data set [4], the Michaelis constant (Km) stood at 21.1 µM and the turnover number (kcat) was 2.68 s⁻¹.

B5: Zea mays EPSPS variant Zm-H6 (868-H6) with D196V (H6-D196V) (Zea mays; A1R/A3W/A415G/A71Q/D195V/D401G/E301S/E390G/G101A/I207L/K83R/L97C/T278A/T360S/T440Q/V437R) (protein)
chain: B1 chain with D196V
notes: shuffled variant 868-H6 plus D196V; E. coli BL21(DE3), Ni-NTA purified
As to B5, in data set [5], the Km is 61.8 µM and the turnover number (kcat) is 2.73 s⁻¹.

B6: Zea mays EPSPS variant Zm-H6 (868-H6) with H54E (H6-H54E) (Zea mays; A1R/A3W/A415G/A71Q/D401G/E301S/E390G/G101A/H53E/I207L/K83R/L97C/T278A/T360S/T440Q/V437R) (protein)
chain: B1 chain with H54E
notes: 868-H6 plus H54E; E. coli BL21(DE3), Ni-NTA purified
As to B6, in [6], the Michaelis constant (Km) is 27.9 µM and the kcat was found to be 4.13 s⁻¹.

B7: Zea mays EPSPS variant Zm-H6 (868-H6) with K246G (H6-K246G) (Zea mays; A1R/A3W/A415G/A71Q/D401G/E301S/E390G/G101A/I207L/K245G/K83R/L97C/T278A/T360S/T440Q/V437R) (protein)
chain: B1 chain with K246G
notes: 868-H6 plus K246G; E. coli BL21(DE3), Ni-NTA purified
As for B7, in data set [7], the Km was 24.0 µM and the kcat was found to be 3.5 s⁻¹.

B8: Zea mays EPSPS variant Zm-H6 (868-H6) with R61Y (H6-R61Y) (Zea mays; A1R/A3W/A415G/A71Q/D401G/E301S/E390G/G101A/I207L/K83R/L97C/R60Y/T278A/T360S/T440Q/V437R) (protein)
chain: B1 chain with R61Y
notes: 868-H6 plus R61Y; E. coli BL21(DE3), Ni-NTA purified
Turning to B8, in [8], the Michaelis constant (Km) came to 23.6 µM and the kcat was found to be 2.08 s⁻¹.

B9: Zea mays EPSPS variant Zm-H6 (868-H6) with V87T (H6-V87T) (Zea mays; A1R/A3W/A415G/A71Q/D401G/E301S/E390G/G101A/I207L/K83R/L97C/T278A/T360S/T440Q/V437R/V86T) (protein)
chain: B1 chain with V87T
notes: 868-H6 plus V87T; E. coli BL21(DE3), Ni-NTA purified
B9: in data set [9], the Michaelis constant (Km) is 27.5 µM and the turnover number (kcat) came out at 4.32 s⁻¹.

B10: Zea mays EPSPS variant Zm-A189T (Zea mays; A188T) (protein)
chain: MAGAEEIVLQPIKEISGTVKLPGSKSLSNRILLLAALSEGTTVVDNLLNSEDVHYMLGALRTLGLSVEADKAAKRAVVVGCGGKFPVEDAKEEVQLFLGNAGTAMRPLTAAVTAAGGNATYVLDGVPRMRERPIGDLVVGLKQLGADVDCFLGTDCPPVRVNGIGGLPGGKVKLSGSISSQYLSALLMTAPLALGDVEIEIIDKLISIPYVEMTLRLMERFGVKAEHSDSWDRFYIKGGQKYKSPKNAYVEGDASSASYFLAGAAITGGTVTVEGCGTTSLQGDVKFAEVLEMMGAKVTWTETSVTVTGPPREPFGRKHLKAIDVNMNKMPDVAMTLAVVALFADGPTAIRDVASWRVKETERMVAIRTELTKLGASVEEGPDYCIITPPEKLNVTAIDTYDDHRMAMAFSLAACAEVPVTIRDPGCTRKTFPDYFDVLSTFVKN
In the case of B10, in [10], the Km was 307 µM and the turnover number (kcat) came to 4.3 s⁻¹.

B11: 123-C1: maize EPSPS with A2R, A4W, K84R, L98C, G102A, I208L, K243E, E391P, D402G (protein)
chain: B1 chain with Q72A, K243E, A279T, S302E, S361T, G391P, G416A, R438V, Q441T
modifications: maize clone 123-C1
notes: maize EPSPS with A2R, A4W, K84R, L98C, G102A, I208L, K243E, E391P, D402G
Turning to B11, the “Reaction rate, 200 uM, no glyph” value in the data set on maize EPSPS (PEP and S3P both at 200 uM, no glyphosate) is 516. Moreover, the “Reaction rate, 30 uM, 1 mM glyph” value with maize EPSPS (substrates at 30 uM, glyphosate at 1 mM) is on record as 94.5. Moreover, in data set [11], the “hairy root growth in the presence of 25 uM glyphosate” value is reported as “generated hairy roots”.

B12: Zea mays EPSPS variant Zm-T103I (Zea mays; T102I) (protein)
chain: B10 chain with T103I, T189A
notes: native maize plus T103I; E. coli BL21(DE3), Ni-NTA purified
Turning to B12, in [12], the Michaelis-Menten constant (Km) was determined as 171 µM and the catalytic constant (kcat) stood at 5.33 s⁻¹.

B13: Zea mays EPSPS variant Zm-P107S (Zea mays; P106S) (protein)
chain: B10 chain with P107S, T189A
notes: native maize plus P107S; E. coli BL21(DE3), Ni-NTA purified
On to B13, for which, in data set [13], the Michaelis constant (Km) was found to be 14.8 µM and the turnover number (kcat) was 29.97 s⁻¹.

Values taken from patent publication US11549123B2, “Plant EPSP synthases and methods of use” (PIONEER HI-BRED INTERNATIONAL, INC., priority 2015, dated 2023).
